Assay results from article PMC10721106, “Structure of the siphophage neck–Tail complex suggests that conserved tail tip proteins facilitate receptor binding and tail assembly” (PLOS Biology, 2023).

B3: coat protein gpE (natural protein, bacteriophage lambda, UniProt P03713 1-341, looked up)
chain: MSMYTTAQLLAANEQKFKFDPLFLRLFFRESYPFTTEKVYLSQIPGLVNMALYVSPIVSGEVIRSRGGSTSEFTPGYVKPKHEVNPQMTLRRLPDEDPQNLADPAYRRRRIIMQNMRDEELAIAQVEEMQAVSAVLKGKYTMTGEAFDPVEVDMGRSEENNITQSGGTEWSKRDKSTYDPTDDIEAYALNASGVVNIIVFDPKGWALFRSFKAVKEKLDTRRGSNSELETAVKDLGKAVSYKGMYGDVAIVVYSGQYVENGVKKNFLPDNTMVLGNTQARGLRTYGCIQDADAQREGINASARYPKNWVTTGDPAREFTMIQSAPLMLLADPDEFVSVQLA
notes: major capsid (coat) protein gpE of bacteriophage lambda, as it stands in the mature virion; The introduction gives 415 copies in the head (cited); also called major capsid protein gpE; head protein gpE; source: lambda W60 phage grown on E. coli MG1655; virions purified (PEG 8000 precipitation, CsCl gradient)
B11: tail terminal protein gpU (natural protein, bacteriophage lambda, UniProt P03732 1-131, looked up)
chain: MKHTELRAAVLDALEKHDTGATFFDGRPAVFDEADFPAVAVYLTGAEYTGEELDSDTWQAELHIEVFLPAQVPDSELDAWMESRIYPVMSDIPALSDLITSMVASGYDYRRDDDAGLWSSADLTYVITYEM
notes: tail terminal protein gpU of bacteriophage lambda; all 131 residues modelled; O-loop 25-37, E-loop 45-58; also called tail terminator; source: lambda W60 phage grown on E. coli MG1655; virions purified (PEG 8000 precipitation, CsCl gradient)

Key:
[1] = biological target: the molecule itself; assay: cryo-EM structure; purified lambda virions; local reconstruction of the tail tip complex with C3 symmetry (RELION), 3.44 Å
[2] = biological target: the molecule itself; assay: cryo-EM structure; purified lambda virions; icosahedral reconstruction of the head, 3.5 Å
[3] = biological target: the molecule itself; assay: cryo-EM structure; purified lambda virions; local reconstruction of the gpB (portal) and gpW (adaptor) rings with 12-fold symmetry, 3.2 Å
[4] = biological target: T1, cementing protein gpD (bacteriophage lambda), P03712; assay: cryo-EM structure; purified lambda virions; icosahedral reconstruction of the head, 3.5 Å; details: remark: other sources report otherwise
T1 chain: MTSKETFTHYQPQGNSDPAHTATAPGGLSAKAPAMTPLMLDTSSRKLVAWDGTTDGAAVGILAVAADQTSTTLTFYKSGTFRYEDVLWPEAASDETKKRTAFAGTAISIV

[5] = biological target: B3; assay: as above; details: both partners purified
[6] = biological target: T2, tail tube protein gpV (bacteriophage lambda), P03733; assay: cryo-EM structure; purified lambda virions; local reconstruction of the tail tube (RELION), 3.48 Å; details: remark: other sources report otherwise
T2 chain: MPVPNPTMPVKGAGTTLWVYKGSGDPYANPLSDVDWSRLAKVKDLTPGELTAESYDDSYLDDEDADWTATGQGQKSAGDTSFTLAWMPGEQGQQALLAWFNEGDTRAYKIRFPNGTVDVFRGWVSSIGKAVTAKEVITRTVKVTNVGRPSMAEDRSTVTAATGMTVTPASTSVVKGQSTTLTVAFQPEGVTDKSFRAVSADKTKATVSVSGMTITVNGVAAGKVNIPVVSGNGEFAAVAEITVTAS

[7] = biological target: B11; assay: cryo-EM structure; purified lambda virions; local reconstruction of the neck: gpFII, gpU and 2 proximal gpV rings, 3.5 Å; details: both partners purified
[8] = biological target: the molecule itself; assay: as above

B1: insertion protein gpI (natural protein, bacteriophage lambda, UniProt P03730 1-223, looked up)
chain: MAATHTLPLASPGMARICLYGDLQRFGRRIDLRVKTGAEAIRALATQLPAFRQKLSDGWYQVRIAGRDVSTSGLTAQLHETLPDGAVIHIVPRVAGAKSGGVFQIVLGAAAIAGSFFTAGATLAAWGAAIGAGGMTGILFSLGASMVLGGVAQMLAPKARTPRIQTTDNGKQNTYFSSLDNMVAQGNVLPVLYGEMRVGSRVVSQEISTADEGDGGQVVVIGR
notes: insertion protein gpI of bacteriophage lambda in the virion; source: lambda W60 phage grown on E. coli MG1655; virions purified (PEG 8000 precipitation, CsCl gradient)
Q: B1 was tested. Which “stoichiometry N” value [1] did it give?
A: Its value is 3.

B2: distal tail protein gpM (natural protein, bacteriophage lambda, UniProt P03737 1-109, looked up)
chain: MKTFRWKVKPGMDVASVPSVRKVRFGDGYSQRAPAGLNANLKTYSVTLSVPREEATVLESFLEEHGGWKSFLWTPPYEWRQIKVTCAKWSSRVSMLRVEFSAEFEQVVN
notes: distal tail protein gpM of bacteriophage lambda; all 109 residues resolved; two conformers that differ in the E-loop; source: lambda W60 phage grown on E. coli MG1655; virions purified (PEG 8000 precipitation, CsCl gradient)
Q: B2 was tested. Which “stoichiometry N” value [1] did it give?
A: Its value is 6.

Q: Does B3 bind [2]?
A: Result: binds

B4: portal protein gpB (natural protein, bacteriophage lambda, UniProt P03710 23-533, looked up)
chain: GYHGGGSGFGGQLRSWNPPSESVDAALLPNFTRGNARADDLVRNNGYAANAIQLHQDHIVGSFFRLSHRPSWRYLGIGEEEARAFSREVEAAWKEFAEDDCCCIDVERKRTFTMMIREGVAMHAFNGELFVQATWDTSSSRLFRTQFRMVSPKRISNPNNTGDSRNCRAGVQINDSGAALGYYVSEDGYPGWMPQKWTWIPRELPGGRASFIHVFEPVEDGQTRGANVFYSVMEQMKMLDTLQNTQLQSAIVKAMYAATIESELDTQSAMDFILGANSQEQRERLTGWIGEIAAYYAAAPVRLGGAKVPHLMPGDSLNLQTAQDTDNGYSVFEQSLLRYIAAGLGVSYEQLSRNYAQMSYSTARASANESWAYFMGRRKFVASRQASQMFLCWLEEAIVRRVVTLPSKARFSFQEARSAWGNCDWIGSGRMAIDGLKEVQEAVMLIEAGLSTYEKECAKRGDDYQEIFAQQVRETMERRAAGLKPPAWAAAAFESGLRQSTEEEKSDSRAA
notes: portal protein gpB of bacteriophage lambda in the mature virion; modelled without 23 N-terminal residues, 20 C-terminal residues and the loop 303-319; domains: wing 24-249 and 368-452, stem 250-279 and 343-367, clip 280-342, crown 453-511; source: lambda W60 phage grown on E. coli MG1655; virions purified (PEG 8000 precipitation, CsCl gradient); copies: 12
Q: With B4 as the binder, how does the “stoichiometry N” value [3] read?
A: The value was 12.

B5: cementing protein gpD (natural protein)
chain: MTSKETFTHYQPQGNSDPAHTATAPGGLSAKAPAMTPLMLDTSSRKLVAWDGTTDGAAVGILAVAADQTSTTLTFYKSGTFRYEDVLWPEAASDETKKRTAFAGTAISIV
notes: cementing (decoration) protein gpD of bacteriophage lambda, trimers on the capsid shell of the mature virion; also called head protein gpD; source: lambda W60 phage grown on E. coli MG1655; virions purified (PEG 8000 precipitation, CsCl gradient)
Q: Which stoichiometry N [4] does the source give for B5 here?
A: The stoichiometry N was 3.

Q: Does B5 bind [5]?
A: Result: binds

B6: tape measure protein gpH (natural protein, bacteriophage lambda, UniProt P03736 1-853, looked up)
chain: MAEPVGDLVVDLSLDAARFDEQMARVRRHFSGTESDAKKTAAVVEQSLSRQALAAQKAGISVGQYKAAMRMLPAQFTDVATQLAGGQSPWLILLQQGGQVKDSFGGMIPMFRGLAGAITLPMVGATSLAVATGALAYAWYQGNSTLSDFNKTLVLSGNQAGLTADRMLVLSRAGQAAGLTFNQTSESLSALVKAGVSGEAQIASISQSVARFSSASGVEVDKVAEAFGKLTTDPTSGLTAMARQFHNVSAEQIAYVAQLQRSGDEAGALQAANEAATKGFDDQTRRLKENMGTLETWADRTARAFKSMWDAVLDIGRPDTAQEMLIKAEAAYKKADDIWNLRKDDYFVNDEARARYWDDREKARLALEAARKKAEQQTQQDKNAQQQSDTEASRLKYTEEAQKAYERLQTPLEKYTARQEELNKALKDGKILQADYNTLMAAAKKDYEATLKKPKQSSVKVSAGDRQEDSAHAALLTLQAELRTLEKHAGANEKISQQRRDLWKAESQFAVLEEAAQRRQLSAQEKSLLAHKDETLEYKRQLAALGDKVTYQERLNALAQQADKFAQQQRAKRAAIDAKSRGLTDRQAEREATEQRLKEQYGDNPLALNNVMSEQKKTWAAEDQLRGNWMAGLKSGWSEWEESATDSMSQVKSAATQTFDGIAQNMAAMLTGSEQNWRSFTRSVLSMMTEILLKQAMVGIVGSIGSAIGGAVGGGASASGGTAIQAAAAKFHFATGGFTGTGGKYEPAGIVHRGEFVFTKEATSRIGVGNLYRLMRGYATGGYVGTPGSMADSRSQASGTFEQNNHVVINNDGTNGQIGPAALKAVYDMARKGARDEIQTQMRDGGLFSGGGR
notes: tape measure protein gpH of bacteriophage lambda in the virion; only a C-terminal α-helix modelled (residues 818-842 in the results, 818-849 in the methods); source: lambda W60 phage grown on E. coli MG1655; virions purified (PEG 8000 precipitation, CsCl gradient)
Q: How did the “stoichiometry N” value [1] turn out when B6 was run?
A: Its value is 3.

B7: central fiber protein gpJ (natural protein, bacteriophage lambda, UniProt P03749 1-1132, looked up)
chain: MGKGSSKGHTPREAKDNLKSTQLLSVIDAISEGPIEGPVDGLKSVLLNSTPVLDTEGNTNISGVTVVFRAGEQEQTPPEGFESSGSETVLGTEVKYDTPITRTITSANIDRLRFTFGVQALVETTSKGDRNPSEVRLLVQIQRNGGWVTEKDITIKGKTTSQYLASVVMGNLPPRPFNIRMRRMTPDSTTDQLQNKTLWSSYTEIIDVKQCYPNTALVGVQVDSEQFGSQQVSRNYHLRGRILQVPSNYNPQTRQYSGIWDGTFKPAYSNNMAWCLWDMLTHPRYGMGKRLGAADVDKWALYVIGQYCDQSVPDGFGGTEPRITCNAYLTTQRKAWDVLSDFCSAMRCMPVWNGQTLTFVQDRPSDKTWTYNRSNVVMPDDGAPFRYSFSALKDRHNAVEVNWIDPNNGWETATELVEDTQAIARYGRNVTKMDAFGCTSRGQAHRAGLWLIKTELLETQTVDFSVGAEGLRHVPGDVIEICDDDYAGISTGGRVLAVNSQTRTLTLDREITLPSSGTALISLVDGSGNPVSVEVQSVTDGVKVKVSRVPDGVAEYSVWELKLPTLRQRLFRCVSIRENDDGTYAITAVQHVPEKEAIVDNGAHFDGEQSGTVNGVTPPAVQHLTAEVTADSGEYQVLARWDTPKVVKGVSFLLRLTVTADDGSERLVSTARTTETTYRFTQLALGNYRLTVRAVNAWGQQGDPASVSFRIAAPAAPSRIELTPGYFQITATPHLAVYDPTVQFEFWFSEKQIADIRQVETSTRYLGTALYWIAASINIKPGHDYYFYIRSVNTVGKSAFVEAVGRASDDAEGYLDFFKGKITESHLGKELLEKVELTEDNASRLEEFSKEWKDASDKWNAMWAVKIEQTKDGKHYVAGIGLSMEDTEEGKLSQFLVAANRIAFIDPANGNETPMFVAQGNQIFMNDVFLKRLTAPTITSGGNPPAFSLTPDGKLTAKNADISGSVNANSGTLSNVTIAENCTINGTLRAEKIVGDIVKAASAAFPRQRESSVDWPSGTRTVTVTDDHPFDRQIVVLPLTFRGSKRTVSGRTTYSMCYLKVLMNGAVIYDGAANEAVQVFSRIVDMPAGRGNVILTFTLTSTRHSADIPPYTFASDVQVMVIKKQALGISVV
notes: central fiber protein gpJ of bacteriophage lambda in the virion; domains HDII, HDII-insertion (with FNIII-A, residues 72-215), HDIII, HDIV (with a β-sandwich, residues 483-569), linker, FNIII-1, FNIII-2, three-helix bundle; source: lambda W60 phage grown on E. coli MG1655; virions purified (PEG 8000 precipitation, CsCl gradient)
Q: Which “stoichiometry N” value [1] does the source give for B7 here?
A: Its value is 3.

B8: adaptor protein gpW (natural protein, bacteriophage lambda)
chain: MTRQEELAAARAALHDLMTGKRVATVQKDGRRVEFTATSVSDLKKYIAELEVQTGMTQRRRGPAGFYV
notes: adaptor protein gpW of bacteriophage lambda, 68-residue protein, residues 4-68 resolved; domains: β-hairpin 23-36, two-α-helix bundle 4-22 and 37-54, C-arm 55-68; also called neck protein gpW; source: lambda W60 phage grown on E. coli MG1655; virions purified (PEG 8000 precipitation, CsCl gradient); copies: 12
Q: B8 was tested. Which “stoichiometry N” value [3] did it give?
A: Its value is 12.

B9: tail tube protein gpV, P03733 1-246 (natural protein)
chain: MPVPNPTMPVKGAGTTLWVYKGSGDPYANPLSDVDWSRLAKVKDLTPGELTAESYDDSYLDDEDADWTATGQGQKSAGDTSFTLAWMPGEQGQQALLAWFNEGDTRAYKIRFPNGTVDVFRGWVSSIGKAVTAKEVITRTVKVTNVGRPSMAEDRSTVTAATGMTVTPASTSVVKGQSTTLTVAFQPEGVTDKSFRAVSADKTKATVSVSGMTITVNGVAAGKVNIPVVSGNGEFAAVAEITVTAS
Q: For B9, which stoichiometry N [6] is on record?
A: The stoichiometry N was 6.

B10: stopper protein gpFII (natural protein, bacteriophage lambda)
chain: MADFDNLFDAAIARADETIRGYMGTSATITSGEQSGAVIRGVFDDPENISYAGQGVRVEGSSPSLFVRTDEVRQLRRGDTLTIGEENFWVDRVSPDDGGSCHLWLGRGVPPAVNRRR
notes: stopper protein gpFII of bacteriophage lambda, 117-residue protein, residues 4-117 resolved; domains: N-terminal α-helix 4-24, β-sandwich 25-41 and 63-107, β-hairpin 46-62, C-terminal loop 108-117; also called neck protein gpFII; source: lambda W60 phage grown on E. coli MG1655; virions purified (PEG 8000 precipitation, CsCl gradient)
Q: What does the source list for B10?
A: binding result [7]: binds; stoichiometry N [8]: 6

Q: B11 was tested. Which “stoichiometry N” value [8] did it give?
A: Its value is 6.
